Reference: the supplement of paper PMC5998384

Experiments:
HeLa Kyoto [1] = assay: solubility change mitosis vs G1/S (difference of NP-40 vs SDS log2 ratios) (log2 ratio difference); higher = more soluble in mitosis
HeLa Kyoto [2] = assay: solubility in G1/S (NP-40 vs SDS abundance) (log2 ratio); higher = more soluble; settings: cell cycle stage: G1/S
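Wherever solubility change mitosis vs G1/S (difference of NP-40 vs SDS log2 ratios) is given: synchronized HeLa Kyoto cells (double thymidine block for G1/S, nocodazole release for mitosis), protein amounts in NP-40 versus SDS lysates quantified by mass spectrometry, three biological replicates.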
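Wherever solubility in G1/S (NP-40 vs SDS abundance) is given: HeLa Kyoto cells arrested at G1/S by double thymidine block, proteins quantified by TMT10plex mass spectrometry in mild NP-40 versus SDS extracts, three biological replicates.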

CIC, sequence (chain, as listed by the source): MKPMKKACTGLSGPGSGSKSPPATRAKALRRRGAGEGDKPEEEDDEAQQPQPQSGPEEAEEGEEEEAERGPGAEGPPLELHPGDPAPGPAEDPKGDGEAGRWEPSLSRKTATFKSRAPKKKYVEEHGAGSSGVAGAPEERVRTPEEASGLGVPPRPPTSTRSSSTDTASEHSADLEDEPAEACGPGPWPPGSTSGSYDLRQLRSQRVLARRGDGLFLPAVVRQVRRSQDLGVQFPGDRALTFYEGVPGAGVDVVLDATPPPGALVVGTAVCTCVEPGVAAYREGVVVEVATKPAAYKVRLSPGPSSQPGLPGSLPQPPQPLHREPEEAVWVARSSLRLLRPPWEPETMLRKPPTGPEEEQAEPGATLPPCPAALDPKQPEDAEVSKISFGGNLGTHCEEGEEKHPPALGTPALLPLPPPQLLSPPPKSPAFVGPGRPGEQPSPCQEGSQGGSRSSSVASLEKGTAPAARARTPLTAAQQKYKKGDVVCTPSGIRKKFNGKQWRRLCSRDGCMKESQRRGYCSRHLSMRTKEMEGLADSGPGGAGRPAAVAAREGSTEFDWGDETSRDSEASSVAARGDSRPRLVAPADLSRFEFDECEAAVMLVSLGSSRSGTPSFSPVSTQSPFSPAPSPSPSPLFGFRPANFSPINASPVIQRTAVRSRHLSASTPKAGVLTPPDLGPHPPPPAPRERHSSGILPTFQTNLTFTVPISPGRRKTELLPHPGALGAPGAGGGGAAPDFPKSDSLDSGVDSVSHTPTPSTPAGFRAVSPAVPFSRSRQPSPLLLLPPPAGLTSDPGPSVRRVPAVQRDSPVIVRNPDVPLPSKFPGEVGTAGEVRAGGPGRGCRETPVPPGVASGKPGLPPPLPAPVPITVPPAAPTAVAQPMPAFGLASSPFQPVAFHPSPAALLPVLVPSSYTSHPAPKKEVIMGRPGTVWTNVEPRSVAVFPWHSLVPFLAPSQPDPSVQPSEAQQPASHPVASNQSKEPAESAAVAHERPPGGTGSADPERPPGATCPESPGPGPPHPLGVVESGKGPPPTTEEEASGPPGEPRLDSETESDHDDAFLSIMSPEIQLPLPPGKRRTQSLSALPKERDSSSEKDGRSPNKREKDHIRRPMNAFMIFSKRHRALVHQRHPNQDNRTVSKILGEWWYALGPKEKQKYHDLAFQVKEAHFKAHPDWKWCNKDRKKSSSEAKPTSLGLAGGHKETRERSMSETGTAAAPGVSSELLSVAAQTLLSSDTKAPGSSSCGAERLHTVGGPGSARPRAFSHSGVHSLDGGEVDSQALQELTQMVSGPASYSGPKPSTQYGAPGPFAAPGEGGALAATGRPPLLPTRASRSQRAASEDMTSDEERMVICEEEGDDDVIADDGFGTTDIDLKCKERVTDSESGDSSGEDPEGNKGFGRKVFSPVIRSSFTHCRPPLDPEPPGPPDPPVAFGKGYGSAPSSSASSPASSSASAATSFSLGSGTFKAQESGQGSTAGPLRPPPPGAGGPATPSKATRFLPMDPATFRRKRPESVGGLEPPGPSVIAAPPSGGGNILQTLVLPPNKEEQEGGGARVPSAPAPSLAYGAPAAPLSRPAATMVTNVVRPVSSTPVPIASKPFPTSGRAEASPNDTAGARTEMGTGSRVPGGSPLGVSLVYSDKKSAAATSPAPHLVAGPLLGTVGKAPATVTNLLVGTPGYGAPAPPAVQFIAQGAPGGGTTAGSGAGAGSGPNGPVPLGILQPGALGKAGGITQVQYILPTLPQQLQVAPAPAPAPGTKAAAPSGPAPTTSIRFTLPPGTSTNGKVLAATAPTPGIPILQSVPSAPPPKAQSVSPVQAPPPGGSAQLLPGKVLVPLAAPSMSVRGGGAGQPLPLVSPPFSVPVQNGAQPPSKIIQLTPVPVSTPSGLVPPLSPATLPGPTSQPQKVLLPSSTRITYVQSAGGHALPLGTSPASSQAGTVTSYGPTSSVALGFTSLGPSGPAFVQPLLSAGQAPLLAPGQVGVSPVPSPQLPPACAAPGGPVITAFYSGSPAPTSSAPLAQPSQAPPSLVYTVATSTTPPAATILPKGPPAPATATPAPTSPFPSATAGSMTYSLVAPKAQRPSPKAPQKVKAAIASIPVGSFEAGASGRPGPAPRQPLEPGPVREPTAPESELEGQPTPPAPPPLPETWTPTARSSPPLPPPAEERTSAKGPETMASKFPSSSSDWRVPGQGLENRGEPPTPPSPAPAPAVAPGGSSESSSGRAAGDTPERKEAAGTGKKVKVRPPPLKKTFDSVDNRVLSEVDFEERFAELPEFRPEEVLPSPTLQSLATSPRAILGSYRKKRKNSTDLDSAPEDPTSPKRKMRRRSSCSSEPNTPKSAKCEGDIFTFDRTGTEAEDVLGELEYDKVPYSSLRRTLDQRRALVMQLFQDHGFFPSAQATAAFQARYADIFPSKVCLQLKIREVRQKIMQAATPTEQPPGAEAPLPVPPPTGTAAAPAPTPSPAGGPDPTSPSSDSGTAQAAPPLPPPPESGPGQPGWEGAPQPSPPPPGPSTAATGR
ATRN, sequence (chain, as listed by the source): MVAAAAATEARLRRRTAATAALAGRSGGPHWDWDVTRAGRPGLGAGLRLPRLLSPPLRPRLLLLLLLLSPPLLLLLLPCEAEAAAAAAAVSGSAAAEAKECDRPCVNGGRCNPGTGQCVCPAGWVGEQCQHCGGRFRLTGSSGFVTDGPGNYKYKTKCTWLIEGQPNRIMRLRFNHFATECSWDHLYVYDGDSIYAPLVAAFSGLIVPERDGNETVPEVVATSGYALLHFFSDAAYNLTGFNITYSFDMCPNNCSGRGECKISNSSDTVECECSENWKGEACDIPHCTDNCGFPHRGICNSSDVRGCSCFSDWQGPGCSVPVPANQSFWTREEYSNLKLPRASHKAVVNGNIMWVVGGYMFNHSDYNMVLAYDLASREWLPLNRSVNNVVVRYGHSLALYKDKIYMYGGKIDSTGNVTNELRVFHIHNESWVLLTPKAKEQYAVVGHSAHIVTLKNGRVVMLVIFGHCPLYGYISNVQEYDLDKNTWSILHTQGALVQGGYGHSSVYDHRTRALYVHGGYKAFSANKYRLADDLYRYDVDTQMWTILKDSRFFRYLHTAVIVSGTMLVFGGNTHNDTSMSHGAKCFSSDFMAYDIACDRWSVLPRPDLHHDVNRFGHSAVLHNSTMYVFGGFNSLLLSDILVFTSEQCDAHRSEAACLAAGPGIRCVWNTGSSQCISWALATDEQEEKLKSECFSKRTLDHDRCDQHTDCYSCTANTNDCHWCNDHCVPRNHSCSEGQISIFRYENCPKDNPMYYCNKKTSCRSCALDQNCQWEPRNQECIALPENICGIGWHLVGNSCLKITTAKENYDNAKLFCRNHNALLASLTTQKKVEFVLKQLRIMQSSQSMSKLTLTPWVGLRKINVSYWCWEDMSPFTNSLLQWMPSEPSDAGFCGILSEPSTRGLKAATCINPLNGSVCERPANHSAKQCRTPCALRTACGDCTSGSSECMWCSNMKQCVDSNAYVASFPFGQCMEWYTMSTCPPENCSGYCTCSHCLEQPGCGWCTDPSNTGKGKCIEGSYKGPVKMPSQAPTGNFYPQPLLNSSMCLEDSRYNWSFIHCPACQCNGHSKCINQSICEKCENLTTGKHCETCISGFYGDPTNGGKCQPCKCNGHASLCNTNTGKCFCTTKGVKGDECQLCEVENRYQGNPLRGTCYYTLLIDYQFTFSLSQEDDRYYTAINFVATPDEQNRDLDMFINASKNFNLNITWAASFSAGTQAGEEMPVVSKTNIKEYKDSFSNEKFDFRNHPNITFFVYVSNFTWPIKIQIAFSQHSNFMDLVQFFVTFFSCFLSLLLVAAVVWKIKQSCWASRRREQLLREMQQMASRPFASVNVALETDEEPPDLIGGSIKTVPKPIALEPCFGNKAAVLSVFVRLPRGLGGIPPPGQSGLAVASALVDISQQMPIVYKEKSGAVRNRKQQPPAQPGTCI

Substance | solubility change mitosis (log2) (HeLa Kyoto [1]) | solubility in G1/S (log2) (HeLa Kyoto [2])
MDEPPFSEAALEQALGEPCDLDAALLTDIEDMLQLINNQDSDFPGLFDPPYAGSGAGGTDPASPDTSSPGSLSPPPATLSSSLEAFLSGPQAAPSPLSPPQPAPTPLKMYPSMPAFSPGPGIKEESVPLSILQTPTPQPLPGALLPQSFPAPAPPQFSSTPVLGYPSPPGGFSTGSPPGNTQQPLPGLPLASPPGVPPVSLHTQVQSVVPQQLLTVTAAPTAAPVTTTVTSQIQQVPVLLQPHFIKADSLLLTAMKTDGATVKAAGLSPLVSGTTVQTGPLPTLVSGGTILATVPLVVDAEKLPINRLAAGSKAPASAQSRGEKRTAHNAIEKRYRSSINDKIIELKDLVVGTEAKLNKSAVLRKAIDYIRFLQHSNQKLKQENLSLRTAVHKSKSLKDLVSACGSGGNTDVLMEGVKTEVEDTLTPPPSDAGSPFQSSPLSLGSRGSGSGGSGSDSEPDSPVFEDSKAKPEQRPSLHSRGMLDRSRLALCTLVFLCLSCNPLASLLGARGLPSPSDTTSVYHSPGRNVLGTESRDGPGWAQWLLPPVVWLLNGLLVLVSLVLLFVYGEPVTRPHSGPAVYFWRHRKQADLDLARGDFAQAAQQLWLALRALGRPLPTSHLDLACSLLWNLIRHLLQRLWVGRWLAGRAGGLQQDCALRVDASASARDAALVYHKLHQLHTMGKHTGGHLTATNLALSALNLAECAGDAVSVATLAEIYVAAALRVKTSLPRALHFLTRFFLSSARQACLAQSGSVPPAMQWLCHPVGHRFFVDGDWSVLSTPWESLYSLAGNPVDPLAQVTQLFREHLLERALNCVTQPNPSPGSADGDKEFSDALGYLQLLNSCSDAAGAPAYSFSISSSMATTTGVDPVAKWWASLTAVVIHWLRRDEEAAERLCPLVEHLPRVLQESERPLPRAALHSFKAARALLGCAKAESGPASLTICEKASGYLQDSLATTPASSSIDKAVQLFLCDLLLVVRTSLWRQQQPPAPAPAAQGTSSRPQASALELRGFQRDLSSLRRLAQSFRPAMRRVFLHEATARLMAGASPTRTHQLLDRSLRRRAGPGGKGGAVAELEPRPTRREHAEALLLASCYLPPGFLSAPGQRVGMLAEAARTLEKLGDRRLLHDCQQMLMRLGGGTTVTSS [SREBF1] | -0.263 | -0.139
MSDIVEKTLTALPGLFLQNQPGGGPAAAKASFSSRLGSLVRGITALTSKHEEEKLIQQELSSLKATVSAPTTTLKMMKECMVRLIYCEMLGYDASFGYIHAIKLAQQGNLLEKRVGYLAVSLFLHESHELLLLLVNTVVKDLQSTNLVEVCMALTVVSQIFPCEMIPAVLPLIEDKLQHSKEIVRRKAVLALYKFHLIAPNQVQHIHIKFRKALCDRDVGVMAASLHIYLRMIKENSSGYKDLTGSFVTILKQVVGGKLPVEFNYHSVPAPWLQIQLLRILGLLGKDDQRTSELMYDVLDESLRRAELNHNVTYAILFECVHTVYSIYPKSELLEKAAKCIGKFVLSPKINLKYLGLKALTYVIQQDPTLALQHQMTIIECLDHPDPIIKRETLELLYRITNAQNITVIVQKMLEYLHQSKEEYVIVNLVGKIAELAEKYAPDNAWFIQTMNAVFSVGGDVMHPDIPNNFLRLLAEGFDDETEDQQLRLYAVQSYLTLLDMENVFYPQRFLQVMSWVLGEYSYLLDKETPEEVIAKLYKLLMNDSVSSETKAWLIAAVTKLTSQAHSSNTVERLIHEFTISLDTCMRQHAFELKHLHENVELMKSLLPVDRSCEDLVVDASLSFLDGFVAEGLSQGAAPYKPPHQRQEEKLSQEKVLNFEPYGLSFSSSGFTGRQSPAGISLGSDVSGNSAETGLKETNSLKLEGIKKLWGKEGYLPKKESKTGDESGALPVPQESIMENVDQAITKKDQSQVLTQSKEEKEKQLLASSLFVGLGSESTINLLGKADTVSHKFRRKSKVKEAKSGETTSTHNMTCSSFSSLSNVAYEDDYYSNTLHDTGDKELKKFSLTSELLDSESLTELPLVEKFSYCSLSTPSLFANNNMEIFHPPQSTAASVAKESSLASSFLEETTEYIHSNAMEVCNNETISVSSYKIWKDDCLLMVWSVTNKSGLELKSADLEIFPAENFKVTEQPGCCLPVMEAESTKSFQYSVQIEKPFTEGNLTGFISYHMMDTHSAQLEFSVNLSLLDFIRPLKISSDDFGKLWLSFANDVKQNVKMSESQAALPSALKTLQQKLRLHIIEIIGNEGLLACQLLPSIPCLLHCRVHADVLALWFRSSCSTLPDYLLYQCQKVMEGS [AP4E1] | -0.0567 | -0.402
MWMTPKRSKMEVDEALVFRPEWTQRYLVVEPPEGDGALCLVCRRLIVATRERDVRRHYEAEHEYYERYVADGERAALVERLRQGDLPVASFTPEERAARAGLGLCRLLALKGRGWGEGDFVYQCMEVLLREVLPEHVSVLQGVDLSPDITRQRILSIDRNLRNQLFNRARDFKAYSLALDDQAFVAYENYLLVFIRGVGPELEVQEDLLTIINLTHHFSVGALMSAILESLQTAGLSLQRMVGLTTTHTLRMIGENSGLVSYMREKAVSPNCWNVIHYSGFLHLELLSSYDVDVNQIINTISEWIVLIKTRGVRRPEFQTLLTESESEHGERVNGRCLNNWLRRGKTLKLIFSLRKEMEAFLVSVGATTVHFSDKQWLCDFGFLVDIMEHLRELSEELRVSKVFAAAAFDHICTFEVKLNLFQRHIEEKNLTDFPALREVVDELKQQNKEDEKIFDPDRYQMVICRLQKEFERHFKDLRFIKKDLELFSNPFNFKPEYAPISVRVELTKLQANTNLWNEYRIKDLGQFYAGLSAESYPIIKGVACKVASLFDSNQICEKAFSYLTRNQHTLSQPLTDEHLQALFRVATTEMEPGWDDLVRERNESNP [EPM2AIP1] | 0.291 | -0.485
MATVQEKAAALNLSALHSPAHRPPGFSVAQKPFGATYVWSSIINTLQTQVEVKKRRHRLKRHNDCFVGSEAVDVIFSHLIQNKYFGDVDIPRAKVVRVCQALMDYKVFEAVPTKVFGKDKKPTFEDSSCSLYRFTTIPNQDSQLGKENKLYSPARYADALFKSSDIRSASLEDLWENLSLKPANSPHVNISATLSPQVINEVWQEETIGRLLQLVDLPLLDSLLKQQEAVPKIPQPKRQSTMVNSSNYLDRGILKAYSDSQEDEWLSAAIDCLEYLPDQMVVEISRSFPEQPDRTDLVKELLFDAIGRYYSSREPLLNHLSDVHNGIAELLVNGKTEIALEATQLLLKLLDFQNREEFRRLLYFMAVAANPSEFKLQKESDNRMVVKRIFSKAIVDNKNLSKGKTDLLVLFLMDHQKDVFKIPGTLHKIVSVKLMAIQNGRDPNRDAGYIYCQRIDQRDYSNNTEKTTKDELLNLLKTLDEDSKLSAKEKKKLLGQFYKCHPDIFIEHFGD [DEPDC7] | -0.0977 | 0.222
MVAMAAGPSGCLVPAFGLRLLLATVLQAVSAFGAEFSSEACRELGFSSNLLCSSCDLLGQFNLLQLDPDCRGCCQEEAQFETKKLYAGAILEVCGUKLGRFPQVQAFVRSDKPKLFRGLQIKYVRGSDPVLKLLDDNGNIAEELSILKWNTDSVEEFLSEKLERI [SEP15] | -0.028 | 0.305
MDPLRAQQLAAELEVEMMADMYNRMTSACHRKCVPPHYKEAELSKGESVCLDRCVSKYLDIHERMGKKLTELSMQDEELMKRVQQSSGPA [TIMM10] | 0.197 | -0.415
MKALIVLGLVLLSVTVQGKVFERCELARTLKRLGMDGYRGISLANWMCLAKWESGYNTRATNYNAGDRSTDYGIFQINSRYWCNDGKTPGAVNACHLSCSALLQDNIADAVACAKRVVRDPQGIRAWVAWRNRCQNRDVRQYVQGCGV [LYZ] | 2.19 | -1.78
MQREEKQLEASLDALLSQVADLKNSLGSFICKLENEYGRLTWPSVLDSFALLSGQLNTLNKVLKHEKTPLFRNQVIIPLVLSPDRDEDLMRQTEGRVPVFSHEVVPDHLRTKPDPEVEEQEKQLTTDAARIGADAAQKQIQSLNKMCSNLLEKISKEERESESGGLRPNKQTFNPTDTNALVAAVAFGKGLSNWRPSGSSGPGQAGQPGAGTILAGTSGLQQVQMAGAPSQQQPMLSGVQMAQAGQPGKMPSGIKTNIKSASMHPYQR [MED8] | 0.105 | 0.142
MQPPPRKVKVTQELKNIQVEQMTKLQAKHQAECDLLEDMRTFSQKKAAIEREYAQGMQKLASQYLKRDWPGVKADDRNDYRSMYPVWKSFLEGTMQVAQSRMNICENYKNFISEPARTVRSLKEQQLKRCVDQLTKIQTELQETVKDLAKGKKKYFETEQMAHAVREKADIEAKSKLSLFQSRISLQKASVKLKARRSECNSKATHARNDYLLTLAAANAHQDRYYQTDLVNIMKALDGNVYDHLKDYLIAFSRTELETCQAVQNTFQFLLENSSKVVRDYNLQLFLQENAVFHKPQPFQFQPCDSDTSRQLESETGTTEEHSLNKEARKWATRVAREHKNIVHQQRVLNDLECHGAAVSEQSRAELEQKIDEARENIRKAEIIKLKAEARLDLLKQIGVSVDTWLKSAMNQVMEELENERWARPPAVTSNGTLHSLNADTEREEGEEFEDNMDVFDDSSSSPSGTLRNYPLTCKVVYSYKASQPDELTIEEHEVLEVIEDGDMEDWVKARNKVGQVGYVPEKYLQFPTSNSLLSMLQSLAALDSRSHTSSNSTEAELVSGSLNGDASVCFVKALYDYEGQTDDELSFPEGAIIRILNKENQDDDGFWEGEFNGRIGVFPSVLVEELSASENGDTPWMREIQISPSPKPHASLPPLPLYDQPPSSPYPSPDKRSSLYFPRSPSANEKSLHAESPGFSQASRHTPETSYGKLRPVRAAPPPPTQNHRRPAEKIEDVEITLV [FCHSD2] | -0.00785 | 0.194
ATRN | -0.041 | 0.238
MTEESEETVLYIEHRYVCSECNQLYGSLEEVLMHQNSHVPQQHFELVGVADPGVTVATDTASGTGLYQTLVQESQYQCLECGQLLMSPSQLLEHQELHLKMMAPQEAVPAEPSPKAPPLSSSTIHYECVDCKALFASQELWLNHRQTHLRATPTKAPAPVVLGSPVVLGPPVGQARVAVEHSYRKAEEGGEGATVPSAAATTTEVVTEVELLLYKCSECSQLFQLPADFLEHQATHFPAPVPESQEPALQQEVQASSPAEVPVSQPDPLPASDHSYELRNGEAIGRDRRGRRARRNNSGEAGGAATQELFCSACDQLFLSPHQLQQHLRSHREGVFKCPLCSRVFPSPSSLDQHLGDHSSESHFLCVDCGLAFGTEALLLAHRRAHTPNPLHSCPCGKTFVNLTKFLYHRRTHGVGGVPLPTTPVPPEEPVIGFPEPAPAETGEPEAPEPPVSEETSAGPAAPGTYRCLLCSREFGKALQLTRHQRFVHRLERRHKCSICGKMFKKKSHVRNHLRTHTGERPFPCPDCSKPFNSPANLARHRLTHTGERPYRCGDCGKAFTQSSTLRQHRLVHAQHFPYRCQECGVRFHRPYRLLMHRYHHTGEYPYKCRECPRSFLLRRLLEVHQLVVHAGRQPHRCPSCGAAFPSSLRLREHRCAAAAAQAPRRFECGTCGKKVGSAARLQAHEAAHAAAGPGEVLAKEPPAPRAPRATRAPVASPAALGSTATASPAAPARRRGLECSECKKLFSTETSLQVHRRIHTGERPYPCPDCGKAFRQSTHLKDHRRLHTGERPFACEVCGKAFAISMRLAEHRRIHTGERPYSCPDCGKSYRSFSNLWKHRKTHQQQHQAAVRQQLAEAEAAVGLAVMETAVEALPLVEAIEIYPLAEAEGVQISG [ZNF574] | 0.212 | -0.386
CIC | -0.0541 | -0.00578
